Laboratory results reported in patent publication US20250129173A1 (SHENYANG SUNSHINE PHARMACEUTICAL, published 2025).
Several values for one entry are separate records, joined by “and”; a condition that tells them apart may be missing. Equal values may be shown once.

T1: human PRLR on the cell surface (T47D human breast cancer cells; BAF3-huPRLR cells) (human, UniProt P16471 25-622)
T1 sequence (looked up): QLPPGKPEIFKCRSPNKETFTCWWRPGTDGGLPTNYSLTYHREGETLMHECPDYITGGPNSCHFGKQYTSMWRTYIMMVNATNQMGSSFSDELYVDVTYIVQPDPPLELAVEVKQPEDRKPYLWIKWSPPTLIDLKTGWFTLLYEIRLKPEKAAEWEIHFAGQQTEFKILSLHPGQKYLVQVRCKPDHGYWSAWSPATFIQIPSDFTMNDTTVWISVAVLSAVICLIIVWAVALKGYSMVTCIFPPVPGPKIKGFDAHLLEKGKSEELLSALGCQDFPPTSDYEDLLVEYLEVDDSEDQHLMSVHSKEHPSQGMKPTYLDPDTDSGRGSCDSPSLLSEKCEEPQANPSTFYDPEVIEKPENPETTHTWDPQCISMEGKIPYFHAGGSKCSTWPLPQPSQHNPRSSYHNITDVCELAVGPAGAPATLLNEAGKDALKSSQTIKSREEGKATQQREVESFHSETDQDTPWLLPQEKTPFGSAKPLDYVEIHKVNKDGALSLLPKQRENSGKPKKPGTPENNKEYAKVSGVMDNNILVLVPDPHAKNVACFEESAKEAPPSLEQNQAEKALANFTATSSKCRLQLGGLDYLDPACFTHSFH

T2: recombinant human PRLR-ECD protein (Acro, item No. PRR-H52Ha) (human, UniProt P16471 25-234)
T2 construct: Bought protein; also called PRLR-His
T2 sequence: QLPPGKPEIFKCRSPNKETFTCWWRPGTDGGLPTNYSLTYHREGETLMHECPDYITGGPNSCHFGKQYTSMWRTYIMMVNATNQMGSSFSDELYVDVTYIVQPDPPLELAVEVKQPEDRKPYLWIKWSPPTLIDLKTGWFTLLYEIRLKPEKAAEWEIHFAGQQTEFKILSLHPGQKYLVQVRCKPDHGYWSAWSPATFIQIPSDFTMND

T3: mouse PRLR protein (Beijing Sinobiological, item No. 50457-M08H) (mouse, UniProt Q08501 20-229)
T3 construct: Bought; also called murine-derived PRLR-ECD
T3 sequence (looked up): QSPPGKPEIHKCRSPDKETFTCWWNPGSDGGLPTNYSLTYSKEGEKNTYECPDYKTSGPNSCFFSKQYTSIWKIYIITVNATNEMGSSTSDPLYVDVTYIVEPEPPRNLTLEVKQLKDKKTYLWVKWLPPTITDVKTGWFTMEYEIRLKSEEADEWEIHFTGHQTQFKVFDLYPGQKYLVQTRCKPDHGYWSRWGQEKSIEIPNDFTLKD

T4: PRLR-ECD Fibronectin type-III 2 polypeptide 7 (189-208) (human, N-terminal biotin (bio-))
T4 peptide: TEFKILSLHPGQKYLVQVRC


Columns and labels:
[1] = molecular target: T1, human PRLR on the cell surface (T47D …); test: cell-based or functional assay
[2] = molecular target: T2, recombinant human PRLR-ECD protein …; test: indirect ELISA, coated human PRLR-ECD
[3] = molecular target: T3, mouse PRLR protein (Beijing …); test: indirect ELISA, coated mouse PRLR protein
Procedure: A mouse PRLR protein (purchased from Beijing Sinobiological Company, item No. 50457-M08H), i.e., mouse PRLR, was coated in a 96-well ELISA plate according to 0.5 μg/well. The cross-reactivity of SPGA02-ch18, and SPGA02-ch260 to the mouse PRLR was determined. Other specific experimental methods were referred to Embodiment 8.

[4] = molecular target: T1, human PRLR on the cell surface (T47D …); test: flow cytometry on T47D cells
Procedure: In this experiment, a human mammary ductal carcinoma cell T47D was used as a target cell, and SPGA02-260 was used as a primary antibody. SPGA02-260 was serially diluted from 20 μg/mL in six gradients according to a 6-fold gradient. An antibody diluted with a 100 μL gradient and 100 μL of a T47D cell were incubated for 30 min at room temperature (The cell was suspended in 100 μL of an RPMI-1640 serum-free medium (purchased from Gibco, item No.: 61870036). The maximum working concentration of a monoclonal antibody was 10 μg/mL). The cell was washed twice with PBS to remove unbound SPGA02-260. Then, the cell was incubated with 50 μL of anti-murine fluorescent secondary antibody containing 5 μg/mL Alexa Fluor 488 label (purchased from Thermo and Invitrogen, item No.: A11001) at 4° C. for 40 min under light protection. The cell was washed twice with PBS to remove an unbound secondary antibody. Finally, the cell was resuspended in 100 μL of PBS. The binding affinity of SPGA02-260 to the cells was determined by a flow cytometry (purchased from Beckman, model: CytoFLEX). Data obtained were fitted and analyzed by GraphPad Prism6 software.

[5] = molecular target: T2, recombinant human PRLR-ECD protein …; test: indirect ELISA, coated human PRLR-ECD 0.5 µg/mL
Procedure: An indirect enzyme-linked immunosorbent assay was used to determine the binding ability of an murine-derived antibody to human PRLR as follows: diluting a recombinant human PRLR-ECD protein to 0.5 μg/mL with a coating solution (a phosphate coating buffer, pH 7.4), adding a solution to an enzyme-labeled plate with 100 μL/well, and coating the plate at 4° C. overnight. The plate was washed once with PBST. 300 μL/well of blocking solution (1% BSA-PBST) was added. The plate was incubated at 37° C. for 2 h and then washed three times with PBST. The purified antibody was diluted to 1 μg/mL with 1% BSA-PBST. After a solution was diluted with 1:3 gradient, the enzyme-labeled plate was added with 100 μL/well, and incubated at 37° C. for 1 h. The plate was washed with PBST 3 times. A HRP-labeled goat anti-mouse IgG secondary antibody (purchased from Abcam, item No.: ab6789) was added and incubate at 37° C. for 30 min. After the plate was washed 3 times with PBST, residual droplets were patted to be dry as much as possible with a blotting paper. 100 μL of TMB (purchased from KPL, item No.: 52-00-03) was added to each well, placed at room temperature (20±5° C.) and protected from light for 5 min. […] An OD value at 450 nm of an enzyme-labeled instrument was read to analyze the binding ability of the antibody to be tested to a target antigen PRLR-His.

[6] = molecular target: T4, PRLR-ECD Fibronectin type-III 2 …; test: peptide ELISA

Binder | IC50 of inhibition of growth of BAF3-huPRLR cells (CCK8, 72 h) [1] | EC50 [2] | EC50 [3] [µg/mL] | EC50 [4] | EC50 [5] | binding result [6]
humanized monoclonal antibody SPGA02-hu260 (antibody, human IgG1, kappa, V domains shown, Expressed in Expi-293F cells) VH: QVQLQESGPGLVKPSETLSLTCTVSGFSLTRNGVSWIRQPPGKGLEWVGVIWGDGSTNYNSAFMSRVTISVDTSKNQVSLKLSSVTAADTAVYYCAKEGLYYYGRYFDVWGQGTTVTVSS VL: DIQMTQSPSSLSASVGDRVTITCRASQDVGSALAWYQQKPGKVPKLLIYWASTRHTGVPSRFSGSGSGTDFTLTISSLQPEDVATYYCQQYSNYPLTFGGGTKLEIKR | 8.28 ng/ml and 0.06 nM | 0.00898 µg/mL and 0.06 nM | – | – | – | –
chimeric antibody SPGA02-ch260 (antibody, human IgG1, kappa, V domains shown, Expressed in Expi293F cells; also called SPGA01-ch260) VH: QVQLKESGPGLVAPSQSLSITCTVSGFSLTRNGVSWVRQPPGKGLEWLGIIWGDGSTNYHSALISRLSISKDNSKSQVFLKLNSLQTDDTATYYCAKEGLYYYGRYFDVWGAGTTVTVSS VL: DIVMTQSHKFMSTSVGDRVSITCKASQDVGSAVAWYQQKPGQSPKVLIYWASTRHTGVPDRFTGSGSGTDFTLTISNVQSEDLADYFCQQYSNYPLTFGGGTKLEIRR | – | 0.0129 µg/mL and 0.09 nM | 0.297 | 0.21 nM and 0.031 µg/mL | – | –
murine-derived anti-human PRLR monoclonal antibody SPGA02-260 (antibody, V domains shown, Mouse monoclonal antibody purified from hybridoma supernatant by protein A; also called SPHA02-260) VH: QVQLKESGPGLVAPSQSLSITCTVSGFSLTRNGVSWVRQPPGKGLEWLGIIWGDGSTNYHSALISRLSISKDNSKSQVFLKLNSLQTDDTATYYCAKEGLYYYGRYFDVWGAGTTVTVSS VL: DIVMTQSHKFMSTSVGDRVSITCKASQDVGSAVAWYQQKPGQSPKVLIYWASTRHTGVPDRFTGSGSGTDFTLTISNVQSEDLADYFCQQYSNYPLTFGGGTKLEIR | – | – | – | 0.026 µg/mL and 0.17 nM | 0.0209 µg/mL and 0.14 nM | binds
